Substrate in this data set: CC(=O)N[C@H]1[C@H](Oc2ccc3c(C)cc(=O)oc3c2)O[C@H](CO)[C@@H](O)[C@@H]1O
The data set can be described thus: fluorescence, 4MU release, Michaelis-Menten. Type of data set: biochemical, Bacteroides thetaiotaomicron. Conditions: unmodified wild-type enzyme. The source says: fluorescence, 4MU release, Michaelis-Menten on BtGH84

Drawing on PMC5674511, “Increase of enzyme activity through specific covalent modification with fragments” (Chemical Science, 2017), this text covers Km, kcat and kcat/Km for one protein.

B1: BtGH84 (Bacteroides thetaiotaomicron VPI-5482) (protein)
chain: QNVSLQPPPQQLIVQNKTIDLPAVYQLNGGEEANPHAVKVLKELLSGKQSSKKGMLISIGEKGDKSVRKYSRQIPDHKEGYYLSVNEKEIVLAGNDERGTYYALQTFAQLLKDGKLPEVEIKDYPSVRYRGVVEGFYGTPWSHQARLSQLKFYGKNKMNTYIYGPKDDPYHSAPNWRLPYPDKEAAQLQELVAVANENEVDFVWAIHPGQDIKWNKEDRDLLLAKFEKMYQLGVRSFAVFFDDISGEGTNPQKQAELLNYIDEKFAQVKPDINQLVMCPTEYNKSWSNPNGNYLTTLGDKLNPSIQIMWTGDRVISDITRDGISWINERIKRPAYIWWNFPVSDYVRDHLLLGPVYGNDTTIAKEMSGFVTNPMEHAESSKIAIYSVASYAWNPAKYDTWQTWKDAIRTILPSAAEELECFAMHNSDLGPNGHGYRREESMDIQPAAERFLKAFKEGKNYDKADFETLQYTFERMKESADILLMNTENKPLIVEITPWVHQFKLTAEMGEEVLKMVEGRNESYFLRKYNHVKALQQQMFYIDQTSNQNPYQPGVKTATRVIKPLIDRTFATVVKFFNQKFNAHLDATTDYMPHKMISNVEQIKNLPLQVKANRVLISPANEVVKWAAGNSVEIELDAIYPGENIQINFGKDAPCTWGRLEISTDGKEWKTVDLKQKESRLSAGLQKAPVKFVRFTNVSDEEQQVYLRQFVLTIEKK
notes: recombinant purified enzyme
In general, Km refers to the substrate concentration at which the rate is half of its maximum. As usually defined, the kcat is the maximal rate divided by the concentration of active sites. In general, kcat/Km refers to the turnover number divided by the Michaelis constant. B1: the Km was 1460 ± 220 µM, the kcat came to 67 ± 5 s⁻¹ and the kcat/Km came to 46000 ± 5900 M⁻¹ s⁻¹.
